From US20220363763A1 (ABL BIO, published 2022) come the findings set out here.

In experiment [1] the target is T1, human PD-L1-Fc protein (human, UniProt Q9NZQ7 19-239).
T1 construct: Coated on ELISA plates; also called huPD-L1; not shown: Fc part
Nature of the experiment: ELISA on coated PD-L1-Fc. In general terms: ELISA stands for enzyme-linked immunosorbent assay.

Experiment [2] addresses T1, human PD-L1-Fc protein. Nature of the experiment: ELISA receptor blocking, coated PD-L1-Fc, competitor biotin PD-1-Fc. On the procedure:
To evaluate the blocking effect of HL1210-3 mouse mAb on recombinant human PD-L1 to bind to its receptor PD-1, the ELISA based receptor blocking assay was employed. Briefly, microtiter plates were coated with human PD-L1-Fc protein at 1 μg/ml in PBS, 100 μl/well at 4° C. overnight, then blocked with 100 μl/well of 5% BSA. 50 μl biotin-labeled human PD-1-Fc protein and 3-fold dilutions of HL1210-3 antibodies starting from 2 μg/ml at 50 μl were added to each well and incubated for 1 hour at 37° C. The plates were washed with PBS/Tween and then incubated with Streptavidin-HRP for 1 hour at 37° C. After washing, the plates were developed with TMB substrate and analyzed by spectrophotometer at OD 450-630 nm.

In experiment [3] the target is T2, human PD-L1 expressed on mammalian cells (human, UniProt Q9NZQ7 19-290).
T2 construct: whole, on cells; also called PDL1-CHOK1 cells; PDL1-Raji cells
Nature of the experiment: FACS receptor blocking on PDL1-CHOK1 cells, competitor biotin huPD-1. On the procedure:
(§1) To evaluate the blocking effect of HL1210-3 mouse mAb on human PD-L1 expressed on mammalian cells to bind to its receptor PD-1, the FACS-based receptor blocking assay was used. Briefly, PDL1-CHOK1 cells were firstly incubated with 3-fold serious diluted HL1210-3 mouse mAb starting at 20 μg/ml at RT for 1 hour. After wash by FACS buffer (PBS with 2% FBS), the biotin-labeled huPD-1 was added to each well and incubated at RT for 1 hour. Then, the Streptavidin-PE was added to each well for 0.5 hour post twice wash with FACS buffer. The mean florescence intensity (MFI) of PE was evaluated by FACSAriaIII.

For experiment [4], the target named is T3, human PD-L1-his taq protein (human, UniProt Q9NZQ7 19-239, limits assumed).
T3 construct: also called recombinant PD-L1 protein; recombinant human PD-L1; not shown: his tag
As to the kind of experiment: SPR Biacore T200, antibody captured by anti-mouse Fc, PD-L1-his injected. On the procedure: The binding of the HL1210-3 antibodies to recombinant PD-L1 protein (human PD-L1-his taq) was tested with BIACORE™ using a capture method. The HL1210-3 mouse mAb was captured using anti-mouse Fc antibody coated on a CM5 chip. A series dilution of human PD-L1-his taq protein was injected over captured antibody for 3 mins at a flow rate of […]. The antigen was allowed to dissociate for 900 s. All the experiment were carded out on a Biacore T200. Data analysis was carried out using Biacore T200 evaluation software.

In experiment [5] the target is T2, human PD-L1 expressed on mammalian cells. Nature of the experiment: FACS-based receptor blocking on PDL1-CHOK1 cells; blocked ligand biotin-labeled huPD-1; unit from the x axis Log [Con. M]; the text prints the rounded 2.56 nM. On the procedure:
as §1

The target in another experiment is T4, B7-DC (human, UniProt Q9BQ51 20-220, limits assumed).
T4 sequence (looked up): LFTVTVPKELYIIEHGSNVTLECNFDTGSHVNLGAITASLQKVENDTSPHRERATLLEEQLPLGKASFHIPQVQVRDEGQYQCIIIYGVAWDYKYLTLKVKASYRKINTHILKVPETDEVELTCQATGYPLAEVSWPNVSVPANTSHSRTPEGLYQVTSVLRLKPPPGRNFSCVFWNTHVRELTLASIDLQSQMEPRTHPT
As to the kind of experiment: ELISA.

The next experiment addresses T5, B7-2 (human, UniProt P42081 24-247, limits assumed).
T5 sequence (looked up): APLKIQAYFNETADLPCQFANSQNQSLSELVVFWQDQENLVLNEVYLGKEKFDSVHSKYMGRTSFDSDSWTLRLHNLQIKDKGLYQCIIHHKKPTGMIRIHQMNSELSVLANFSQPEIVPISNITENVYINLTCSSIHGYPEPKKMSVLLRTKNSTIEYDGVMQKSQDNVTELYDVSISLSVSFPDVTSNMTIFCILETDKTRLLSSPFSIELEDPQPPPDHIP
As to the kind of experiment: ELISA.

In another experiment the target is T6, B7-H2 (human, UniProt O75144 19-258, limits assumed).
T6 sequence (looked up): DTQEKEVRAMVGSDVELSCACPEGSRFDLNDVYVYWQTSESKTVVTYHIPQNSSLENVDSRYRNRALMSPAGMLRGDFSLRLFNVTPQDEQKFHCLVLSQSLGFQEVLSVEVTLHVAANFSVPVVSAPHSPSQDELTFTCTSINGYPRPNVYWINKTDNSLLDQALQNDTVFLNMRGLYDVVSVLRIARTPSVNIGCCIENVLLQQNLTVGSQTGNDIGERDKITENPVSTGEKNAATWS
Nature of the experiment: ELISA.

Another experiment concerns the target CD28 (human, UniProt P10747 19-152). Nature of the experiment: ELISA.
The target of a further experiment is CTLA4 (human, UniProt P16410 36-161, limits assumed). Nature of the experiment: ELISA.
For a further experiment, the target named is T7, ICOS (human, UniProt Q9Y6W8 21-140, limits assumed).
T7 sequence (looked up): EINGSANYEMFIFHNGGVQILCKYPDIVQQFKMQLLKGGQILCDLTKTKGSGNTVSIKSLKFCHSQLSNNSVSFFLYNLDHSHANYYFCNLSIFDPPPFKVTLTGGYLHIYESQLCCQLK
Nature of the experiment: ELISA.

Another experiment has as its target BTLA (human, UniProt Q7Z6A9 31-157, limits assumed). Nature of the experiment: ELISA.
The target in another experiment is T8, huPD-1 (human, UniProt Q15116 25-167, limits assumed, biotin-labeled in the FACS blocking assays).
T8 construct: also called biotin-labeled huPD-1; Bio-PD1
As to the kind of experiment: ELISA.

The next experiment has as its target T9, B7-1 protein (human, UniProt P33681 35-242, limits assumed, biotin-labeled in the blocking assay).
T9 construct: also called human B7-1; biotin-labeled B7-1
T9 sequence (looked up): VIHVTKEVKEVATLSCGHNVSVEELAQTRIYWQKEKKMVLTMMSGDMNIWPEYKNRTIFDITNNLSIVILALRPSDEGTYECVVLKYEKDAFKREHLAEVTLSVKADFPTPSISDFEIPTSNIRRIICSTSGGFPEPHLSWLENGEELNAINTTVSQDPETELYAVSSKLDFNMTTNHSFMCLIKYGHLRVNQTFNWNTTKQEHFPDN
As to the kind of experiment: ELISA.

A further experiment has as its target T10, mouse PD-L1-Fc protein (mouse, UniProt Q9EP73 19-238, limits assumed).
T10 construct: not shown: Fc part
Nature of the experiment: ELISA on coated PD-L1-Fc. The method, then:
(§2) To evaluate the binding of humanized antibodies to huPD-L1, Mouse PD-L1, Rat PD-L1, […], the antibodies were performed for the ELISA testing. Briefly, microtiter plates were coated with human, mouse, rat and rhesus PD-L1-Fc protein at 1 μg/ml in PBS, 100 μl/well at […] overnight, then blocked with […] of 5% BSA. Three-fold dilutions of humanized antibodies starting from 1 μg/ml were added to each well and incubated for 1-2 hours at RT. The plates were washed with PBS/Tween and then incubate with […] antibody conjugated with Horse Radish Peroxidase (HRP) for 1 hour at RT. After washing, the plates were developed with TMB substrate and analyzed by spectrophotometer at OD 450-630 nm. The Hu1210-41 antibody can bind to rhesus PD-L1 with lower affinity and cannot bind to rat and mouse PD-L1 (FIG. 8 & Table 12).

For another experiment, the target named is rat PD-L1-Fc protein (rat, UniProt D4AE25 19-239). Nature of the experiment: ELISA on coated PD-L1-Fc. On the procedure: as §2
Experiment [6] deals with T1, human PD-L1-Fc protein. Nature of the experiment: ELISA on coated human PD-L1-Fc. The method, then:
as §2

In the next experiment the target is T11, rhesus PD-L1-Fc protein (rhesus, UniProt F6PJN1 19-239).
T11 construct: not shown: Fc part
As to the kind of experiment: ELISA on coated rhesus PD-L1-Fc. On the procedure:
as §2

Experiment [7] deals with T3, human PD-L1-his taq protein. As to the kind of experiment: SPR Biacore T200, antibody captured, PD-L1-his injected. The method in brief:
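HL1210-3 mouse mAb was captured via anti-mouse Fc antibody on a CM5 chip, then serially diluted PD-L1-his was injected for 3 min […]. Dissociation was followed for 900 s.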
For orientation: In SPR one partner is held on a chip, and binding of the other changes the refractive index at the surface.

For experiment [8], the target named is T1, human PD-L1-Fc protein. As to the kind of experiment: ELISA on coated human PD-L1-Fc; table row 'Human PD-L1', no unit in the table, x axis Ab(nM); Table 12 of the text prints 0.215 nM. On the procedure: as §2
The target in experiment [9] is T1, human PD-L1-Fc protein. Nature of the experiment: receptor blocking assay, panel B7-1; blocked ligand biotin-labeled B7-1 protein; by paragraph 296 an ELISA on coated PD-L1-Fc, though the sheet is headed 'Cell based receptor blocking assay'. The method in brief: (§3)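 IC50 values came from the curve of a protein-based receptor blocking ELISA. Wells held human PD-L1-Fc coated at 1 μg/ml in PBS (100 μl/well) overnight at 4° C and were blocked with 5% BSA for 2 hr at 37° C. A 50 μl portion of biotin-labeled human PD-1-Fc or B7-1 protein and 50 μl of a 5-fold antibody dilution series beginning at 100 nM were incubated together for 1 hour at 37° C, and streptavidin-HRP was added for a further 1 hour at 37° C.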

Experiment [10] addresses T1, human PD-L1-Fc protein. Nature of the experiment: receptor blocking assay, panel PD1; blocked ligand biotin-labeled human PD-1-Fc; by paragraph 296 an ELISA on coated PD-L1-Fc, though the sheet is headed 'Cell based receptor blocking assay'. The method in brief: as §3

T3 sequence (Q9NZQ7 19-239 limits assumed): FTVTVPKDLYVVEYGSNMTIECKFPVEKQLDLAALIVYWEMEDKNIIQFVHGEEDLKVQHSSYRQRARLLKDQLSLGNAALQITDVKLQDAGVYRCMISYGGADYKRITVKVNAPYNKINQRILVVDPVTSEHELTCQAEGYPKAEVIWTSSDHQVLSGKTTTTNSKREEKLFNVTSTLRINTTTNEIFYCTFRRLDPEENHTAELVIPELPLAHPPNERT
T1 sequence (Q9NZQ7 19-239 limits assumed): as above
T2 sequence (Q9NZQ7 19-290): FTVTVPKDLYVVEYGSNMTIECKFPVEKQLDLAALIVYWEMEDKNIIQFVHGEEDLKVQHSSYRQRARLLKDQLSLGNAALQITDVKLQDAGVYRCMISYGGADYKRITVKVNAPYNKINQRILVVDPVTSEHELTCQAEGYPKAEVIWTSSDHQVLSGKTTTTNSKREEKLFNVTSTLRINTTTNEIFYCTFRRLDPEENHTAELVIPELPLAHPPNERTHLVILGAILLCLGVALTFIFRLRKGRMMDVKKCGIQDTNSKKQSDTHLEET
Chain of CTLA4 (P16410 36-161 limits assumed): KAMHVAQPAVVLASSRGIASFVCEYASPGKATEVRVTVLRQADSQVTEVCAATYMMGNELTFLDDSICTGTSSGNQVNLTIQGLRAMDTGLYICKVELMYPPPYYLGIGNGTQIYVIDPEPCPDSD
T10 sequence (Q9EP73 19-238 limits assumed): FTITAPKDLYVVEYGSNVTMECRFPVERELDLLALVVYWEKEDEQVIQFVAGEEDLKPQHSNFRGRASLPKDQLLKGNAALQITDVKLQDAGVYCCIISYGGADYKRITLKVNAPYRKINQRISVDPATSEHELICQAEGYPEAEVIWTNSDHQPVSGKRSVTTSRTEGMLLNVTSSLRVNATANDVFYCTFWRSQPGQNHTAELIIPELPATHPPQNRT
T8 sequence (Q15116 25-167 limits assumed): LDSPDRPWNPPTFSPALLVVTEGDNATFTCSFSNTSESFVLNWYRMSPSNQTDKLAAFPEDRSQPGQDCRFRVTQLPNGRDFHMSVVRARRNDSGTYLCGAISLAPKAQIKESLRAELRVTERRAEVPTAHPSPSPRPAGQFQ
Chain of rat PD-L1-Fc protein (D4AE25 entry or part of it limits assumed): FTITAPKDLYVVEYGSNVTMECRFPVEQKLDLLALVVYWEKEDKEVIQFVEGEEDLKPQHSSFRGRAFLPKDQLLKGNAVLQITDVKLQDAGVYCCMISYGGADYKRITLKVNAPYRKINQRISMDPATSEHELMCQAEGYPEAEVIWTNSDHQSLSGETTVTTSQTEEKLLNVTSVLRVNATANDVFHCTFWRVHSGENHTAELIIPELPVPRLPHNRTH

B1: HL1210-3 mouse mAb (antibody, V domains shown)
VH: EVKLVESGGDLVKPGGSLKLSCAASGFTFSSYDMSWVRQTPEKSLEWVATISDGGGYIYYSDSVKGRFTISRDNAKNNLYLQMSSLRSEDTALYICAREFGKRYALDYWGQGTSVT
VL: DIVMTQSHKFMSTSVGDRVSISCKASQDVTPAVAWYQQKPGQSPKLLIYSTSSRYTGVPDRFTGSGSGTDFTFTISSVQAEDLAVYYCQQHYTTPLTFGAGTKLELK
notes: Mouse monoclonal antibody purified from hybridoma; also called hybridoma clone HL1210-3
On to B1, for which the concentration for a half-maximal effect (EC50) (as a rule, the midpoint of the concentration-response curve) in the experiment with human PD-L1-Fc protein [1] came to 5.54 ng/mL. Also, in the experiment with human PD-L1-Fc protein [2], the IC50 (usually the midpoint of a concentration-inhibition curve) worked out at 0.783 nM. The same molecule returned a half-inhibitory concentration (IC50) in experiment [3] of 2.56 nM. In experiment [4], the Kd (as a rule, the constant that tells how readily two partners part at equilibrium) stood at 0.293 nM; the koff (in general, the first-order rate constant of dissociation) was determined as 4.69e-05 s⁻¹; the kon (as a rule, the second-order rate constant of association) was found to be 161000 M⁻¹ s⁻¹. The molecule further came in with an IC50 in experiment [5] of 2.56 nM.

B2: Hu1210-41 (antibody, V domains shown)
VH: EVQLVESGGGLVQPGGSLRLSCAASGFTFSSYDMSWVRQAPGKSLEWVATISDAGGYIYYSDSVKGRFTISRDNAKNSLYLQMNSLRDEDTAVYICAREFGKRYALDYWGQGTTVTVSS
VL: DIQMTQSPSSLSASVGDRVTITCKASQDVTPAVAWYQQKPGKAPKLLIYSTSSRYTGVPSRFSGSGSGTDFTFTISSLQPEDIATYYCQQHYTTPLTFGQGTKLEIK
notes: Hu1210 VH.4d x Vk.1; human gamma 1 / kappa constant domains; also called H12; Hu1210 VH.4d x Hu1210 Vk.1
B2: the binding result with B7-DC, with B7-2, in the experiment with B7-H2, with CD28, with CTLA4 and with ICOS was “no binding” throughout. The binding result in the experiment with BTLA is reported as “no binding”; with huPD-1, “no binding”; with B7-1 protein, “no binding”; with mouse PD-L1-Fc protein, “no binding (tested: 1 µg/ml (highest concentration))”; with rat PD-L1-Fc protein it was “no binding (tested: 1 µg/ml (highest concentration))”. In addition, the concentration giving a half-maximal response (EC50) stood at 0.215 nM with human PD-L1-Fc protein [6], 0.628 nM in the experiment with rhesus PD-L1-Fc protein and 0.21 nM with human PD-L1-Fc protein [8]. In [7], this molecule returned a Kd of 0.378 nM. In experiment [7], this molecule registered a koff of 3.46e-05 s⁻¹. In [7], this molecule yielded an association rate constant (kon) of 91700 M⁻¹ s⁻¹. For the same molecule, the “IC50 (read off the curve)” value is around 0.9 nM with human PD-L1-Fc protein [9] and around 1 nM in the experiment with human PD-L1-Fc protein [10].
